Literature values as cited in paper PMC5811428.

Biological target: C5aR (Homo sapiens) (UniProt P21730)
Chain of UniProt P21730 (P21730 whole entry): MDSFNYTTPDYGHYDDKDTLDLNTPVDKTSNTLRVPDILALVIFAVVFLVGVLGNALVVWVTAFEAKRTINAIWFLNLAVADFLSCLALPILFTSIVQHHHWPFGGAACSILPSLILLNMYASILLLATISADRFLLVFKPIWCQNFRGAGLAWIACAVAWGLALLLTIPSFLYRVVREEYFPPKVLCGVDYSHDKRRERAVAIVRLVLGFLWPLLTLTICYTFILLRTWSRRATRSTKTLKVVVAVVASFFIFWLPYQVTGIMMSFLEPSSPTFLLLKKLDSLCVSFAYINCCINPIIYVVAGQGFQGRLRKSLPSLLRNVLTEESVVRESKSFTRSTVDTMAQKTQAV

Kd: 150 µM
Substance: hC5a C-terminal peptide CT peptide (from UniProt P01031)
